For two substances, binding signal (% polarization change (DPC)) results are on record in article PMC9655642.

This data set deals with alpha-CTD (RNA polymerase alpha subunit C-terminal domain) (Bacillus licheniformis B1391). Put plainly: fluorescence polarization. As to conditions: FP: 25 mM Tris-HCl, 3 mM NaCl, 3 mM MgCl2, 0.1 mM DTT, room temp 20 min, 100 nM probe, 30 ug protein in 100 uL; EMSA: 10 nM probe, 25 C 20 min; footprinting: …. (In general: Fluorescence polarisation rises when a labelled molecule tumbles more slowly, as on binding a larger partner.)

“PtrxA-UP5-5D (five distal subsite repeats)”: the binding signal (% polarization change (DPC)) is 35. Next, “PtrxA-UP5-5P (five proximal subsite repeats)”: 52.
